We go through one substance from publication PMC2148441.

The test has as its target human phosphopantetheinyl transferase (human) (UniProt Q9NRN7).

On to “ACP domain of human fatty acid synthase with the hydrophobic patch Leu2157, Met2158, Val2160 replaced by alanine (from UniProt P49327 2117-2205) (domain or fragment)”, for which the Km for ACP in the PPT reaction after replacement of the hydrophobic patch by alanines (data not shown) is above 1000 fold.
